Assay results reported in patent WO2001000678A1 (dated 2001).

Target: HIV-1 MN viral lysate (native gp120) (HIV-1 isolate MN, UniProt P05877 32-513)
Test: ELISA, biotinylated Fab on viral lysate; reference HIV-1 IIIb lysate

B1: Fab 7 (Fab, V domains shown)
VH: EVQLQESGPGLVKPSETLSLTCTVSGGSISSSSYYWGWIRQPPGKGLEWIGSIYYSGSTYYNPSLKSRVTISVDTSKNQFSLKLSSVTAAYTAVYYCARRCTSGVCYGAFDYWGQGTPVTVSS
VL: DLVMTQSPSFLSASVGDRVTITCRASQGISSYLAWYQQKSGKAPKLLIYGTSILQSGVPSRFSGSGSGTESTLTISSLQPEDFATYYCQQLNSYPITFGQGTRLEIK
  binding relative to the level seen with IIIb: ~50%
